These results are taken from paper PMC5903968.

pKi: −log10 of the molar value.

The target of this assay is MMP-2 catalytic domain (MMP-2CAT) (UniProt P08253). Kind of assay: enzyme inhibition assay.
MMP-2 catalytic domain (MMP-2CAT), sequence (P08253 30-660): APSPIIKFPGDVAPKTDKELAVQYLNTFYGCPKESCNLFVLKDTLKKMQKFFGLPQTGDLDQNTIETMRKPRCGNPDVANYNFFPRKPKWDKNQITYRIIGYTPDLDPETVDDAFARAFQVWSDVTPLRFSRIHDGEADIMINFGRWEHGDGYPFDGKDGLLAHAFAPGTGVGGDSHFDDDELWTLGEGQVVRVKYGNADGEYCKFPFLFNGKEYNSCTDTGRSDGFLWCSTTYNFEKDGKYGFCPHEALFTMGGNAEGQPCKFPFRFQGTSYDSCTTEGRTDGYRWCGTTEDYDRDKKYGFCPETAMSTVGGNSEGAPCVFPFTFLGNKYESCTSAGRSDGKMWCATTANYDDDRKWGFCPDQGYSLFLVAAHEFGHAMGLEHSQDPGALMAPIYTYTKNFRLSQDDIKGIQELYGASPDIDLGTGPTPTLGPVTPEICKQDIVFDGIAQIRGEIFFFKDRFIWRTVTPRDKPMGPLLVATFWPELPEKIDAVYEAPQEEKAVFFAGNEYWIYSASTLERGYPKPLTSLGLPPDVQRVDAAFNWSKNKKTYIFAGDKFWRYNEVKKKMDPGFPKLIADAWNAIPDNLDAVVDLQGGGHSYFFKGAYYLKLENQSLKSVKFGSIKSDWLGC

The term pKi denotes −log10 of the Ki, conventionally taken in molar units. Lower therefore signals a large Ki. The substance “N-terminal domain of TIMP-2 (N-TIMP2), wild type (from UniProt P16035 27-152) (domain or fragment)” had a pKi of 8.58.
